The supplement of paper PMC10065799, “High-throughput profiling of sequence recognition by tyrosine kinases and SH2 domains using bacterial peptide display” (eLife, 2023)

These sequences were tested against c-Src SH2 (assay: SH2 binding enrichment of the phosphorylated peptide, bacterial display (enrichment ratio); higher = better substrate or ligand; peptides without Tyr show the background).
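For SH2 binding enrichment of the phosphorylated peptide, bacterial display in this document: peptide library displayed on the E. coli surface as eCPX fusions, selected cells deep-sequenced, score is each peptide's frequency after selection divided by its frequency in the input.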
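For phosphorylation enrichment, bacterial display in this document: 11-residue human phosphosite peptides and single-mutation variants displayed on the E. coli surface, counted by deep sequencing, each peptide's frequency after selection divided by its frequency in the unselected input library; frequency after pTyr selection over input frequency; kinase dosed for 20-30% of maximal phosphorylation in three min.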

First: ESMNIYLQTSP [NAT1_Y208_T207I]
Second: LQLLGDRPVFS [CHST6_Y358_Y358D_YF]
The SH2 binding enrichment of the first is lower: 0.441 for the first, 0.532 for the second.

Going from HLVLNYGVCIC [JAK2_Y613_V617I] to CKSVHYDLVFL [COL22A1_Y37], the SH2 binding enrichment rises from 0.614 to 0.986.

Going from SREALYNEMDP [CACNA1A_Y794] to QSSALYEDHYL [ASS1_Y83_R86H], the SH2 binding enrichment falls from 1.28 to 0.524.

Compared with YAKSVYWENTL [NUP107_Y296], SLEKSYELPDG [ACTA1_Y242] is higher in SH2 binding enrichment: 1.12 for the first, 1.26 for the second.

Compared with APGDAYGDAGF [SYP_Y250_YF], SILAVYSKDNY [PANK2_Y400] is higher in SH2 binding enrichment: 0.469 for the first, 0.855 for the second.

First: NKEAIYSGYIR [SMCHD1_Y283]
Second: QGLRLYRTHLA [BTK_Y617_P619T]
The SH2 binding enrichment of the first is lower: 0.567 for the first, 1.08 for the second.

Going from DCVRMYELVHR [GLE1_Y135_G130D] to LIHLHYIRRDY [BBS4_Y43_K46R], the SH2 binding enrichment falls from 2.56 to 0.763.

First: ALAHKYQGGGG [HBB_Y146_H147Q]
Second: SSPVLYLSPET [TJP1_Y931_P930L]
The SH2 binding enrichment of the first is lower: 0.415 for the first, 0.442 for the second.

First: LESTLYESSVV [TRPV4_Y91]
Second: EYITRYIDSLK [PSMA7_Y110_A112D]
The SH2 binding enrichment of the first is lower: 0.448 for the first, 0.588 for the second.

Going from EEGNPYFSGAR [MCCC2_Y520_S523G_YF] to GIVKAYFVRAR [AIPL1_Y267_YF], the SH2 binding enrichment falls from 0.536 to 0.506.

First: RETLTYAQAQR [BRD1_Y33]
Second: VRSVDYVLFRS [FAM189B_Y361]
The SH2 binding enrichment of the first is higher: 0.753 for the first, 0.648 for the second.

Compared with SVVVPYEPPGV [TP53_Y220_E224G], IKGIRYLHHRG [GUCY2D_Y656] is higher in SH2 binding enrichment: 0.936 for the first, 1.01 for the second.

Going from VNKGGYFSVNL [C3orf33_Y164_S160N] to GEEIKYTLWLS [OTC_Y55_M56T], the SH2 binding enrichment falls from 1.4 to 0.379.

Going from ILTLKYPIKHG [ACTA1_Y71_E74K] to REAAAYPHGRL [AGXT_Y297_L298P], the SH2 binding enrichment falls from 0.787 to 0.55.

Compared with RMLRKYQELMS [KRT74_Y425_E424K], FAKSVYWENTL [NUP107_Y296_YF] is higher in SH2 binding enrichment: 0.438 for the first, 1.15 for the second.

Compared with SIKDKYVTAFY [KCNH2_Y611_L615F], QSHKVYFQHLL [POR_Y604_V605F] is higher in SH2 binding enrichment: 0.461 for the first, 0.623 for the second.

Sequence TTPGPHRSIYF [MPG_Y71_Y71H] has an SH2 binding enrichment of 0.503.

These sequences were tested against SHP2-C SH2 in the same assay as above.

First: ESMNIYLQTSP [NAT1_Y208_T207I]
Second: LQLLGDRPVFS [CHST6_Y358_Y358D_YF]
The SH2 binding enrichment of the first is lower: 0.455 for the first, 0.762 for the second.

First: HLVLNYGVCIC [JAK2_Y613_V617I]
Second: CKSVHYDLVFL [COL22A1_Y37]
The SH2 binding enrichment of the first is lower: 0.597 for the first, 0.613 for the second.

Compared with SREALYNEMDP [CACNA1A_Y794], QSSALYEDHYL [ASS1_Y83_R86H] is higher in SH2 binding enrichment: 0.489 for the first, 0.54 for the second.

Compared with YAKSVYWENTL [NUP107_Y296], SLEKSYELPDG [ACTA1_Y242] is lower in SH2 binding enrichment: 0.894 for the first, 0.65 for the second.

Going from APGDAYGDAGF [SYP_Y250_YF] to SILAVYSKDNY [PANK2_Y400], the SH2 binding enrichment rises from 0.545 to 0.612.

First: NKEAIYSGYIR [SMCHD1_Y283]
Second: QGLRLYRTHLA [BTK_Y617_P619T]
The SH2 binding enrichment of the first is lower: 0.845 for the first, 1.31 for the second.

Compared with DCVRMYELVHR [GLE1_Y135_G130D], LIHLHYIRRDY [BBS4_Y43_K46R] is higher in SH2 binding enrichment: 0.746 for the first, 1.17 for the second.

Going from ALAHKYQGGGG [HBB_Y146_H147Q] to SSPVLYLSPET [TJP1_Y931_P930L], the SH2 binding enrichment rises from 0.546 to 0.901.

Compared with LESTLYESSVV [TRPV4_Y91], EYITRYIDSLK [PSMA7_Y110_A112D] is higher in SH2 binding enrichment: 0.861 for the first, 1.1 for the second.

Going from EEGNPYFSGAR [MCCC2_Y520_S523G_YF] to GIVKAYFVRAR [AIPL1_Y267_YF], the SH2 binding enrichment rises from 0.667 to 0.756.

Going from RETLTYAQAQR [BRD1_Y33] to VRSVDYVLFRS [FAM189B_Y361], the SH2 binding enrichment rises from 0.819 to 1.12.

Going from SVVVPYEPPGV [TP53_Y220_E224G] to IKGIRYLHHRG [GUCY2D_Y656], the SH2 binding enrichment rises from 0.781 to 0.966.

First: VNKGGYFSVNL [C3orf33_Y164_S160N]
Second: GEEIKYTLWLS [OTC_Y55_M56T]
The SH2 binding enrichment of the first is higher: 0.725 for the first, 0.644 for the second.

Going from ILTLKYPIKHG [ACTA1_Y71_E74K] to REAAAYPHGRL [AGXT_Y297_L298P], the SH2 binding enrichment falls from 1.46 to 0.739.

Going from RMLRKYQELMS [KRT74_Y425_E424K] to FAKSVYWENTL [NUP107_Y296_YF], the SH2 binding enrichment rises from 0.608 to 0.887.

First: SIKDKYVTAFY [KCNH2_Y611_L615F]
Second: QSHKVYFQHLL [POR_Y604_V605F]
The SH2 binding enrichment of the first is lower: 0.525 for the first, 0.761 for the second.

In the case of TTPGPHRSIYF [MPG_Y71_Y71H], the SH2 binding enrichment was 0.484.

The sequences below were run against Grb2 SH2 (UniProt P62993) in the same assay as above.
Chain of Grb2 SH2 (P62993 whole entry, looked up): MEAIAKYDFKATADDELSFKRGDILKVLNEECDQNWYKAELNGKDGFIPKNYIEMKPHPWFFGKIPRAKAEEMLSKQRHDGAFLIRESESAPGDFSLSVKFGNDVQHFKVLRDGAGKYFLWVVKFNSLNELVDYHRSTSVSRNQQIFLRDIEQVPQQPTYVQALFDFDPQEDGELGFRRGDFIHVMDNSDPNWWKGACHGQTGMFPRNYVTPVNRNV

First: ESMNIYLQTSP [NAT1_Y208_T207I]
Second: LQLLGDRPVFS [CHST6_Y358_Y358D_YF]
The SH2 binding enrichment of the first is higher: 0.829 for the first, 0.749 for the second.

Going from HLVLNYGVCIC [JAK2_Y613_V617I] to CKSVHYDLVFL [COL22A1_Y37], the SH2 binding enrichment falls from 0.985 to 0.775.

Compared with SREALYNEMDP [CACNA1A_Y794], QSSALYEDHYL [ASS1_Y83_R86H] is lower in SH2 binding enrichment: 0.913 for the first, 0.881 for the second.

Going from YAKSVYWENTL [NUP107_Y296] to SLEKSYELPDG [ACTA1_Y242], the SH2 binding enrichment rises from 0.823 to 0.824.

Going from APGDAYGDAGF [SYP_Y250_YF] to SILAVYSKDNY [PANK2_Y400], the SH2 binding enrichment falls from 0.714 to 0.681.

First: NKEAIYSGYIR [SMCHD1_Y283]
Second: QGLRLYRTHLA [BTK_Y617_P619T]
The SH2 binding enrichment of the first is lower: 0.871 for the first, 1.34 for the second.

First: DCVRMYELVHR [GLE1_Y135_G130D]
Second: LIHLHYIRRDY [BBS4_Y43_K46R]
The SH2 binding enrichment of the first is lower: 0.925 for the first, 1.52 for the second.

Compared with ALAHKYQGGGG [HBB_Y146_H147Q], SSPVLYLSPET [TJP1_Y931_P930L] is higher in SH2 binding enrichment: 0.691 for the first, 0.882 for the second.

Compared with LESTLYESSVV [TRPV4_Y91], EYITRYIDSLK [PSMA7_Y110_A112D] is higher in SH2 binding enrichment: 0.708 for the first, 0.814 for the second.

Going from EEGNPYFSGAR [MCCC2_Y520_S523G_YF] to GIVKAYFVRAR [AIPL1_Y267_YF], the SH2 binding enrichment falls from 0.868 to 0.826.

First: RETLTYAQAQR [BRD1_Y33]
Second: VRSVDYVLFRS [FAM189B_Y361]
The SH2 binding enrichment of the first is lower: 0.904 for the first, 1.13 for the second.

Compared with SVVVPYEPPGV [TP53_Y220_E224G], IKGIRYLHHRG [GUCY2D_Y656] is higher in SH2 binding enrichment: 0.826 for the first, 1.39 for the second.

Compared with VNKGGYFSVNL [C3orf33_Y164_S160N], GEEIKYTLWLS [OTC_Y55_M56T] is higher in SH2 binding enrichment: 0.648 for the first, 0.725 for the second.

Going from ILTLKYPIKHG [ACTA1_Y71_E74K] to REAAAYPHGRL [AGXT_Y297_L298P], the SH2 binding enrichment falls from 1.12 to 0.989.

Going from RMLRKYQELMS [KRT74_Y425_E424K] to FAKSVYWENTL [NUP107_Y296_YF], the SH2 binding enrichment rises from 0.712 to 1.08.

Compared with SIKDKYVTAFY [KCNH2_Y611_L615F], QSHKVYFQHLL [POR_Y604_V605F] is higher in SH2 binding enrichment: 0.607 for the first, 0.836 for the second.

TTPGPHRSIYF [MPG_Y71_Y71H] showed an SH2 binding enrichment of 0.71.

The sequences below were run on AncSZ (assay: phosphorylation enrichment, bacterial display (enrichment ratio); higher = better substrate or ligand; peptides without Tyr show the background).

First: ESMNIYLQTSP [NAT1_Y208_T207I]
Second: LQLLGDRPVFS [CHST6_Y358_Y358D_YF]
The phosphorylation enrichment of the first is higher: 1.21 for the first, 0.628 for the second.

First: HLVLNYGVCIC [JAK2_Y613_V617I]
Second: CKSVHYDLVFL [COL22A1_Y37]
The phosphorylation enrichment of the first is higher: 1.52 for the first, 1.24 for the second.

Going from SREALYNEMDP [CACNA1A_Y794] to QSSALYEDHYL [ASS1_Y83_R86H], the phosphorylation enrichment falls from 1.41 to 1.24.

Going from YAKSVYWENTL [NUP107_Y296] to SLEKSYELPDG [ACTA1_Y242], the phosphorylation enrichment rises from 1.02 to 1.06.

First: APGDAYGDAGF [SYP_Y250_YF]
Second: SILAVYSKDNY [PANK2_Y400]
The phosphorylation enrichment of the first is higher: 0.938 for the first, 0.925 for the second.

Compared with NKEAIYSGYIR [SMCHD1_Y283], QGLRLYRTHLA [BTK_Y617_P619T] is lower in phosphorylation enrichment: 0.724 for the first, 0.509 for the second.

Compared with DCVRMYELVHR [GLE1_Y135_G130D], LIHLHYIRRDY [BBS4_Y43_K46R] is lower in phosphorylation enrichment: 1.21 for the first, 0.952 for the second.

Going from ALAHKYQGGGG [HBB_Y146_H147Q] to SSPVLYLSPET [TJP1_Y931_P930L], the phosphorylation enrichment rises from 0.824 to 1.21.

Going from LESTLYESSVV [TRPV4_Y91] to EYITRYIDSLK [PSMA7_Y110_A112D], the phosphorylation enrichment falls from 1.94 to 0.829.

Going from EEGNPYFSGAR [MCCC2_Y520_S523G_YF] to GIVKAYFVRAR [AIPL1_Y267_YF], the phosphorylation enrichment rises from 0.938 to 1.11.

Going from RETLTYAQAQR [BRD1_Y33] to VRSVDYVLFRS [FAM189B_Y361], the phosphorylation enrichment rises from 0.702 to 1.06.

Going from SVVVPYEPPGV [TP53_Y220_E224G] to IKGIRYLHHRG [GUCY2D_Y656], the phosphorylation enrichment falls from 0.883 to 0.466.

Going from VNKGGYFSVNL [C3orf33_Y164_S160N] to GEEIKYTLWLS [OTC_Y55_M56T], the phosphorylation enrichment rises from 0.832 to 1.35.

Going from ILTLKYPIKHG [ACTA1_Y71_E74K] to REAAAYPHGRL [AGXT_Y297_L298P], the phosphorylation enrichment falls from 0.523 to 0.516.

Compared with RMLRKYQELMS [KRT74_Y425_E424K], FAKSVYWENTL [NUP107_Y296_YF] is higher in phosphorylation enrichment: 0.643 for the first, 0.899 for the second.

Going from SIKDKYVTAFY [KCNH2_Y611_L615F] to QSHKVYFQHLL [POR_Y604_V605F], the phosphorylation enrichment rises from 0.578 to 1.14.

For TTPGPHRSIYF [MPG_Y71_Y71H], the phosphorylation enrichment was 0.569.
